We go through 3 substances from US20050106674A1.

This assay has as its target recombinant soluble HEK4 binding protein purified from CHO/HL6 cell-conditioned medium (human) (UniProt P52803). Put plainly: BIAcore competition: soluble receptor extracellular domain preincubated with 0.250 µg/ml HEK4 BP, binding to immobilized HEK4 receptor. Background: SPR reads the build-up and loss of mass on a sensor chip optically.
UniProt P52803, sequence (P52803 20-198 limits assumed, form in doubt): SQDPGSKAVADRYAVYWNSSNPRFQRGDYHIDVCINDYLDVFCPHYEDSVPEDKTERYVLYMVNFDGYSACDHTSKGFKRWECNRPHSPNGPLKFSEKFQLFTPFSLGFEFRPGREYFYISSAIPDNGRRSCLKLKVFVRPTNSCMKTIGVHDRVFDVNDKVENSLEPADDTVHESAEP
Broadly, the IC50 is the concentration that gives 50% inhibition. With “ECK soluble receptor (purified extracellular domain) (from UniProt P29317 24-537)”, the IC50 turned out to be 5 µg/mL.
Turning to “HEK4 receptor extracellular domain (HEK4-X), produced in CHO cells (from UniProt P29320 21-541)”, the IC50 came out at 0.55 µg/mL.
Regarding “HEK8 soluble receptor (purified extracellular domain) (from UniProt P54764 20-547)”, the IC50 turned out to be 10.5 µg/mL.
